Reference: patent US20040014707A1

Molecular target: PA specific receptor on A549 human lung epithelial cells

EGFP-PA32 fusion protein
fold signal over non-specific EGFP binding: 4 fold
